The source of these data is article PMC7058931, “DNA topoisomerase IIIβ promotes cyst generation by inducing cyst wall protein gene expression in Giardia lamblia”.

Series [1] addresses T1, TOP3β (DNA topoisomerase IIIβ) (Giardia lamblia WB, UniProt A8B577 1-973).
T1 sequence: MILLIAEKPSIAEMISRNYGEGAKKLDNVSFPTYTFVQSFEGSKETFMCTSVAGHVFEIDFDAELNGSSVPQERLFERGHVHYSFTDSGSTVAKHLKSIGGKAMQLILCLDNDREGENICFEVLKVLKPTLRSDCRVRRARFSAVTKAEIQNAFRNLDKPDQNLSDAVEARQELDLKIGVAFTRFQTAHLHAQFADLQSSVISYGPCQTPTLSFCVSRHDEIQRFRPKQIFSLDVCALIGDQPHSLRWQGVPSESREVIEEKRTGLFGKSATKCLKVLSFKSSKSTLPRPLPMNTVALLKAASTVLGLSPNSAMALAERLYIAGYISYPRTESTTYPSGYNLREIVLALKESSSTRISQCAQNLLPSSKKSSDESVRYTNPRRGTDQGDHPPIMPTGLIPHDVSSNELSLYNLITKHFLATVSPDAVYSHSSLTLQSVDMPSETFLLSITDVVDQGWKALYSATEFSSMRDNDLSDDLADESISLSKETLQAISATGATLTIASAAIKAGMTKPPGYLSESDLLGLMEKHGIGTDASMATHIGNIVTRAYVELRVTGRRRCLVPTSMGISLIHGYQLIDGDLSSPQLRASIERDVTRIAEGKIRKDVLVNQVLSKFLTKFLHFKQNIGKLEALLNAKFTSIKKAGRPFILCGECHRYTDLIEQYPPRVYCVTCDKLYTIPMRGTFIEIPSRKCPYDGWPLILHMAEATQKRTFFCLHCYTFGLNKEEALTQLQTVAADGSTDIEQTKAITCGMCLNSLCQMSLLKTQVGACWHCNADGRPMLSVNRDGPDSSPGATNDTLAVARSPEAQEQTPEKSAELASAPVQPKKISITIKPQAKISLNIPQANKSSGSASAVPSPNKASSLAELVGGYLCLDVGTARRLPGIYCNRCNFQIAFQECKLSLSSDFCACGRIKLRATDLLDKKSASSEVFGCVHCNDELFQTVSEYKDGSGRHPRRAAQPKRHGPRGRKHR
Kind of series: EMSA; EMSA: 0.02 pmol 32P probe, 5 ng protein, 20 µl, 0.5 µg poly(dI-dC), 15 min at room temperature, 6% acrylamide gel; buffer, salt and pH not given (cited reference). As to conditions: protein: recombinant, tags: C-terminal V5 and His.

Series [2] addresses T1, TOP3β (DNA topoisomerase IIIβ). Kind of series: EMSA; supershifted by anti-TOP3β; EMSA: 0.02 pmol 32P probe, 5 ng protein, 20 µl, 0.5 µg poly(dI-dC), 15 min at room temperature, 6% acrylamide gel; buffer, salt and pH not given (cited reference). As to conditions: protein: recombinant, tags: C-terminal V5 and His. A general note: In EMSA bound probe runs differently from free probe, usually more slowly.

Series [3] has the same target. Kind of series: EMSA; strong; EMSA: 0.02 pmol 32P probe, 5 ng protein, 20 µl, 0.5 µg poly(dI-dC), 15 min at room temperature, 6% acrylamide gel; buffer, salt and pH not given (cited reference). As to conditions: protein: recombinant; tags: C-terminal V5 and His; label: 5'-32P.

B1: ran-51/-20 (dsDNA)
DNA 1: TAAAATAAATTAAATCGAAATTAAAACTTTAA
DNA 2: TTAAAGTTTTAATTTCGATTTAATTTATTTTA
For the molecule B1, the binding result in series [1] (label: 5'-32P) was “binds”.

B2: cwp1-45/-1 (dsDNA)
DNA 1: GTTTACAACTCTCAGATCAAGAAACACAGAAATAAAATATCAGGG
DNA 2: CCCTGATATTTTATTTCTGTGTTTCTTGATCTGAGAGTTGTAAAC
With B2, in series [2] (label: 5'-32P), the binding result is reported as “binds”.
As to GTTTACAACTCTCAGATCAAGAAACACAGAAATAAAATATCAGGG (ssDNA) [cwp1-45/-1F], the binding result in series [1] (label: 32P) is “binds”.

B3: 18S-30/-1 (dsDNA)
DNA 1: GGCGCCCGGCCCGCGGCGCCCGCGCCCGGC
DNA 2: GCCGGGCGCGGGCGCCGCGGGCCGGGCGCC
Take B3: the binding result in series [1] (label: 5'-32P) was “no binding”.
For CTGGCTAACAGTCTACAGTCTACAATTTACAGTATACAATCTACA (ssDNA) [cwp1-90/-46F], in series [1] (label: 32P), the binding result is given as “binds”.

B4: cwp1-90/-46 (dsDNA)
DNA 1: CTGGCTAACAGTCTACAGTCTACAATTTACAGTATACAATCTACA
DNA 2: TGTAGATTGTATACTGTAAATTGTAGACTGTAGACTGTTAGCCAG
As for B4, the binding result in series [1] (label: 5'-32P) is “binds”.

B5: 18S-60/-31 (dsDNA)
DNA 1: CCGTGCCAGGCGGCGGCCCCCGCGCAGGGA
DNA 2: TCCCTGCGCGGGGGCCGCCGCCTGGCACGG
As to B5, in series [1] (label: 5'-32P), the binding result was “no binding”.
GGCGCCCGGCCCGCGGCGCCCGCGCCCGGC (ssDNA) [18S-30/-1F]: the binding result in series [1] (label: 32P) is reported as “no binding”.
As for GTCTTTCCCAAAAAATAAGTTACTACTGATATGTTTTCTC (ssDNA) [cwp3-30/+10F], the binding result in series [2] (label: 32P) is “binds”.

B6: cwp3-30/+10 (dsDNA)
DNA 1: GTCTTTCCCAAAAAATAAGTTACTACTGATATGTTTTCTC
DNA 2: GAGAAAACATATCAGTAGTAACTTATTTTTTGGGAAAGAC
For the molecule B6, the binding result in series [3] was “binds”.
TAGACTGATGCTGTAGAGGTCAACAGATAA (ssDNA) [cwp2-60/-31F]: in series [1] (label: 32P), the binding result is reported as “binds”.

B7: cwp2-60/-31 (dsDNA)
DNA 1: TAGACTGATGCTGTAGAGGTCAACAGATAA
DNA 2: TTATCTGTTGACCTCTACAGCATCAGTCTA
With B7, the binding result in series [3] is “binds”.
